The text below walks through data of publication PMC7216292, “A Multivalent ICAM-1 Binding Nanoparticle which Inhibits ICAM-1 and LFA-1 Interaction Represents a New Tool for the Investigation of Autoimmune-Mediated Dry Eye” (International Journal of Molecular Sciences, 2020).

Data set [1] addresses mouse ICAM-1 (endogenous) (mouse (endogenous in bEnd.3, NOD LGACs)) (UniProt P13597).
Data set [2] shares this target. This is another data set of the same source.
Data set [3] concerns the molecule itself. Briefly: dynamic light scattering; 25 µM in PBS, pH 7.4, heated from 10 °C to 37 °C; assembly of monomers into nanoparticles above Tt1.
In data set [4] the target is mouse ICAM-1 (endogenous) (mouse (endogenous in bEnd.3, NOD LGACs), UniProt P13597 28-537). Briefly: cell-based or functional assay.
Chain of mouse ICAM-1 (endogenous) (P13597 28-537): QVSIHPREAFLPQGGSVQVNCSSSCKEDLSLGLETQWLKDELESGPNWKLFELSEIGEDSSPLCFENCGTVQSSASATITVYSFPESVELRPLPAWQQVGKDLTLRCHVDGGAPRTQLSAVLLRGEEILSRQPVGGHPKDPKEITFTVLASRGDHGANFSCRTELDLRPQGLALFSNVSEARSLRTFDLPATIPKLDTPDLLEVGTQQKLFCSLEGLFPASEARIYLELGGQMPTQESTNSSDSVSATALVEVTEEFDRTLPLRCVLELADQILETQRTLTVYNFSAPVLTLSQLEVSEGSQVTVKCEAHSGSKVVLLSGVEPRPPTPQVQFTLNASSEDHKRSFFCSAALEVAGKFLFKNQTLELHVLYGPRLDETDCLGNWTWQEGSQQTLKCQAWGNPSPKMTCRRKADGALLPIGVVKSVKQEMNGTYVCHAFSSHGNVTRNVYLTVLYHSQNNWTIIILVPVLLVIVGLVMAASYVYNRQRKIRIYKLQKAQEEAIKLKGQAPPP

Chain of mouse ICAM-1 (endogenous) (mouse (endogenous in bEnd.3, NOD LGACs)) (P13597 28-537): as above

As to “lymphocyte function-associated antigen-1 (LFA-1) (from UniProt P24063 24-1162; P11835 24-771) (receptor)”, in data set [1], the adhesion of fluorescently labelled splenocytes to TNF-α-induced bEnd.3 cells in the presence of 100 µM SI (negative control), percent of the control without ELP, plate reader stood at 76.2% and the splenocyte binding to TNF-α-induced bEnd.3 cells in the presence of 100 µM SI (negative control), percent of the control without ELP, flow cytometry worked out at 86.9%. The proliferation of CFSE-labelled mouse CD4+ T-cells stimulated with MCC-loaded CH27 cells, in the presence of 100 µM SI (control), 5 days, percent of the untreated mixture in data set [2] amounted to 91.2%.

B1: SI (diblock elastin-like polypeptide S48I48) (other)
chain: MGVPGSGVPGSGVPGSGVPGSGVPGSGVPGSGVPGSGVPGSGVPGSGVPGSGVPGSGVPGSGVPGSGVPGSGVPGSGVPGSGVPGSGVPGSGVPGSGVPGSGVPGSGVPGSGVPGSGVPGSGVPGSGVPGSGVPGSGVPGSGVPGSGVPGSGVPGSGVPGSGVPGSGVPGSGVPGSGVPGSGVPGSGVPGSGVPGSGVPGSGVPGSGVPGSGVPGSGVPGSGVPGSGVPGSGVPGSGVPGSGVPGIGVPGIGVPGIGVPGIGVPGIGVPGIGVPGIGVPGIGVPGIGVPGIGVPGIGVPGIGVPGIGVPGIGVPGIGVPGIGVPGIGVPGIGVPGIGVPGIGVPGIGVPGIGVPGIGVPGIGVPGIGVPGIGVPGIGVPGIGVPGIGVPGIGVPGIGVPGIGVPGIGVPGIGVPGIGVPGIGVPGIGVPGIGVPGIGVPGIGVPGIGVPGIGVPGIGVPGIGVPGIGVPGIGVPGIGVPGIGY
notes: N-terminal leader; also called parent SI; source: E. coli BLR(DE3), purified by ELP-mediated phase separation
With B1, the binding result in data set [3] was “binds”.

B2: IBP-SI (ICAM-1 binding peptide fused to the diblock elastin-like polypeptide S48I48) (designed binder)
chain: MGFEGFSFLAFEDFVSSIGVPGSGVPGSGVPGSGVPGSGVPGSGVPGSGVPGSGVPGSGVPGSGVPGSGVPGSGVPGSGVPGSGVPGSGVPGSGVPGSGVPGSGVPGSGVPGSGVPGSGVPGSGVPGSGVPGSGVPGSGVPGSGVPGSGVPGSGVPGSGVPGSGVPGSGVPGSGVPGSGVPGSGVPGSGVPGSGVPGSGVPGSGVPGSGVPGSGVPGSGVPGSGVPGSGVPGSGVPGSGVPGSGVPGSGVPGSGVPGSGVPGIGVPGIGVPGIGVPGIGVPGIGVPGIGVPGIGVPGIGVPGIGVPGIGVPGIGVPGIGVPGIGVPGIGVPGIGVPGIGVPGIGVPGIGVPGIGVPGIGVPGIGVPGIGVPGIGVPGIGVPGIGVPGIGVPGIGVPGIGVPGIGVPGIGVPGIGVPGIGVPGIGVPGIGVPGIGVPGIGVPGIGVPGIGVPGIGVPGIGVPGIGVPGIGVPGIGVPGIGVPGIGVPGIGVPGIGVPGIGY
notes: N-terminal leader; residue between IBP and the ELP; Unlabelled form; also called IBI-SI; source: E. coli BLR(DE3), purified by ELP-mediated phase separation
Consider B2, for which, in data set [3], the binding result was “binds”. Further, in data set [4], the “IC50 of inhibition of adhesion of PMA-activated, CFSE-labelled mouse splenocytes (LFA-1) to TNF-α-induced bEnd.3 cells (ICAM-1), flow cytometry, IBP-SI 10-150 µM, 45 min, 37 °C” value was 62.7 µM and the “IC50 of inhibition of adhesion of PMA-activated, CFSE-labelled mouse splenocytes (LFA-1) to TNF-α-induced bEnd.3 cells (ICAM-1), fluorescence plate reader, IBP-SI 10-150 µM, 45 min, 37 °C” value was 81.2 µM.
